According to the domain aggregation screens of Martell et al. (2025):

Assay: soluble fraction after stress (log2 fold change); higher = more stays soluble; pooled small domains, quantitative proteomics
Conditions: stress: pH 4
Method in brief: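 Following acid stress at pH 4, the amount of each small protein domain still soluble was measured in pooled custom libraries by high-throughput quantitative proteomics. Its fold change, on a log2 scale, is higher when more of the domain stayed soluble. This fold change is taken as a measure of aggregation propensity.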

HMKYGPSTVAVLTVVRESEMGAFLDAETGRTNDDILLHKTQQTEPVHIGDQVKVFLYLDPKHRLTASMRVP
soluble fraction (log2): -1.24

HMELNFEGFYRFVRDELNVDLNAYKEKQLKRRIATVMKSSGALTLEDYSRLIANDEVIRNKFLDYITI
soluble fraction (log2): -0.894

HMTVGENTYELIKKDIIFGVLPPLKKLKLQELKKIYNASVSTLREILSRLTGDGFVFSEEQKGFYVSPV
soluble fraction (log2): -0.33

HMPDIFDRGTAHITDAASGVAITFTRTFRIPPEVTMTHKGGTVVAIARLVGSITTGGFTAVLENT
soluble fraction (log2): -0.0848

HMEMNPLDIQNKAAELAQQWLQLPVGERQKQMAAVRTSNPNLHAMAKQKMEEMRSQAESQGRQSLSQP
soluble fraction (log2): -0.0586

HMTGIESVKPSSDFTVEGNRIVAGDAEVEVYDLAGRKVNNNNLTTGVYIAKIAGSAESVKVFV
soluble fraction (log2): 0.22

HMSSIYVYPNPTANRIYIQADNIKKAELFDLMGRKVRSTNQPQIDISRLSRGNYILQVKTQNNTQSFKIIK
soluble fraction (log2): 0.0347

HMDESLIEEAKAMILQMKIEGSVRVRSNGLLEFRNPLFGSVYGRSVEELQEKLNKKVREQKSRI
soluble fraction (log2): 0.194

HMEVLEGFIEDIKFKSEESGYTVAKLNNRNKSIVIVGTMPFISEGQHVKLTGEWKIHQKFGAQFNVKELEE
soluble fraction (log2): -1.37

HMSLNNAHNTIFPRIIELMEMKQLENVLLIGGGIIPRKDIESLESSGVTKLYGPGTPVKETIEFITNWVK
soluble fraction (log2): -0.533

HMEKSQIHLIHTRYVNPEQLVPILSMVIPAENIYVKSDSNLIIINGSSEMLREVESIVSKLDVPS
soluble fraction (log2): -0.687

HMREIEVNYAAGDSVRVIDGPLAGFIGVVSSVEPDKNKVNVTVSMFGRETPVELELDQVETLD
soluble fraction (log2): -0.669

HMAITYETKVISGVNLRSAPSTSASVYQLIPKGENIHVVQKVNDYWLKVQTKDGKTGYISASSKYTNYIG
soluble fraction (log2): 0.0502

HMHVYQSLVTDRVVPGGGYRTTEAILSTEAWRNTLLEQAKRELIGVRNKYASLTELAKVWTAIDTVT
soluble fraction (log2): -0.249

HMAMPQPVARALHRLGQDISAARRMRRLSQEDLAQRIGTSLSTVRRMEDGYPGTALHTFLRALHML
soluble fraction (log2): -0.4

HMLNQIGVSQKEFDQIHTAIKIALKTSSLTPTGITEKLPKFPPEKTADILRWMADNKEVLLNSEEKYELKT
soluble fraction (log2): 0.0247

HMENKLIELTLSLDKSERLDKILTQELSHTRSVIQQWLKSGFVSVNGEIVKANYKAKDGDHVTIQIE
soluble fraction (log2): -0.379

HMGSNLSFDLSQIIASRYQEKAAELGLTAPSLARTDLSPQEQATAEVVARAIIADYYDQRVAPFNDLIPQ
soluble fraction (log2): -1.54

HMQISGSEELEKIVQTVLEKNTDVVEEYKSGKTKVFAFLMGQVMKESRGKANPRLAKDILEKFLA
soluble fraction (log2): 0.177

HMGNFNDMLKYLRVREKMSQAELADKLGVSKSTVGMYELGKREPDFETLEAIADLFNVDMNFLLGK
soluble fraction (log2): -0.439

HMDELPKDILRSFGLPDKPWAMELLRNLRRDGFALDGETARAYAEMAAMKPPRTDARQWMTAADVAYRRG
soluble fraction (log2): 0.105

HMTKASYKITTPSGVNVREGAGKRYAVRKAYPKGKTVTVTQTKEVNGNLWGKTSDGWFAIKYQGAVYASA
soluble fraction (log2): 0.2

HMSFGWELYKGKEGIADTDLHPSGWIRIADKRVFAVSEGEFIEKGLEIIVLSVDGNRIVVRELK
soluble fraction (log2): -0.445

HMNADAIVGRTGVVTEAIAADGFGRVQIDGDSWKAKASGNNGIDVGAKVRVLRIDSIILTVEK
soluble fraction (log2): 0.059

HMNSLKNKNNLIALVGASNDKNKYGNKILLDLVSKGHNVVPINPKEDTVAGLKSYNNVSELSEKPSI
soluble fraction (log2): -0.202

HMREKPRETFQRIAEKVGQTLRKGPVRVQQMDLLFSESREQVMEVLRAMAESGEIRIQDDTLHWNGHT
soluble fraction (log2): 0.193

HMTDGYAMRLERLNSLEEYVLNKGTVSLEDLAERFGVSINTIRRDLNELISRGQIKKVYGGVSSLHD
soluble fraction (log2): -0.245

HMVNLLVTPLEELEINFRTLRALRKYNIYQLEDLLRFIKYNGFDALRIVPGMGIKSTEQLYEKLKDKNI
soluble fraction (log2): -1.06

HMSSLTDNFVKALSYYLALSGKSKKEVADGIGIPPTTFSSWSNGKHLPDMDRLQNLATYLGAPVSEFFDFT
soluble fraction (log2): 0.051

HMTDRKRDAIVQAAIGEFREHGFNGTSMDRVAAAADVSKRTVYNHFPSKEELFEAILLLMWE
soluble fraction (log2): -1.78

HMPAPKPSGALSLKDEPLYAASDSKRRSGTVSGTYYRWDGENVNGRMRITNKQENIGKAGQVTGWITAH
soluble fraction (log2): -0.00233

HMLLLHINQMGVTEFSQLELNHVRSWLANLQIKGAARSSITRRVVSVRAFTYWGAKNGWLASDIGRDLVAP
soluble fraction (log2): -0.275

HMEPTIGTATVTSGSRLNMRSAKSTSASVVTRIPSGATVGVISYASDWSKVTYNGYTGYVSSPYISMNG
soluble fraction (log2): -0.108

HMGEWHQMLRSWGETELKNGRQNILDEAVPAFERAMIETALAHTSGRKKDAALLLGWGRNTLTRKLQEHSI
soluble fraction (log2): -0.349

HMNNTIKFSVDSQNSGKRLDIFLTENIKNYTRSFLKKLIENRQVKLNNNFIISPSERVKFKDQININILQ
soluble fraction (log2): 0.199

HMPIEQVEVPNLTNMTREEAESTLTSLNLKAQVHEEANEADEGKVFKQGTNTGEMVDEGSTIEIWVS
soluble fraction (log2): -0.555

HMSDPTDRLVLEAALKALGEEERQVVLLHAASGLKHREIARDLGLPLSTVLSRYSRALKKLQRYLTEEGVH
soluble fraction (log2): -0.461

HMDKENVLQLQKDLLRLSVNALEKRYYQFSDILLLKYILPLVPKEISIDDQSRLRSLLSGIN
soluble fraction (log2): -0.754

HMNMLGSNIKYLRNRHKLSQQELSEKLGVPRSSLSDYERGHTQVGLDSLIKLADIFDVKIDDLLRSNLSHR
soluble fraction (log2): -0.261

HMGMTDEELNREEERVVAELEAKDEEELTIYNEEDLTFEETLDLPEGSLMRDRENGMIYLKVLDIWMPY
soluble fraction (log2): -0.831

HMTNADRYIGQEATVTEKISNELSTGAVRIGGLVWTARTVDNSEAEEGERVTVEAIEGAKLLVKRR
soluble fraction (log2): -0.0323

HMTKTFDSPEDADNDVLAKTLFQIFGVQSVYLKENFVTITKSNSVGWHTLMEKTGHTLEEHLKF
soluble fraction (log2): 0.0576

HMDTNVPVPNVNGMTLNQAKAALEAAGFHVAVNWLGEKSDNNSVISYEPNGSAAKGTTITITVIAQPEQDG
soluble fraction (log2): -0.507

HMPKRSKDEAELEFLEMLRDNQVDSTWSFGKIISQLGSTDPRYWMVDDDPLWKRQIFEKYLSNR
soluble fraction (log2): -1.79

HMGPNPLTEREQEILQLARTGEPVARLAKRLFLSPGTVRNHLSSAIGKLGAANRVEAAQFATERGW
soluble fraction (log2): -0.0238

HMVPHQPRVWTNTAGKTITAAFVRFNAAGRKVSLKLEKGRQVELPLASLSGNDVDWIKEHVPEAMSNQE
soluble fraction (log2): -0.00313

HMRELSDFEKLLFTTTLERKMINLAMLLTRSNKADSKDLIQDSYLKAIENQVQFNGNNIDAWVITILKNTF
soluble fraction (log2): -0.361

HMKDESYALGTRLLSHALGKTKLEDLAQEKIDEVVQQSGNKTLEQLLTNIGLGNALSIGIARQLT
soluble fraction (log2): ≥ 0.43

HMDFSENEPVTVRVLSILKNNTIRIAVKGAVLQAQTALSQDIREGAFLLMRVHITDNTVVLTPY
soluble fraction (log2): -0.193

HMAAGADEATTVPNVSGDTLNQAIKSLKAEGLGYMLSGAGARVRDQMPEPGAEMTKGSVVMLYMDGDAEVD
soluble fraction (log2): 0.399

HMSASNSIDFANRMIYNKNQVAVFNFGKHMGRPVLEVLKSDPSYYDWMMKGDFPMDTKRKLTEIKLQGF
soluble fraction (log2): -0.173

HMAHTGGNTLTREKAVSVRSASDALLFEIHWNETPREDILSTREEKVDGKTYSIITIRTGKGREDHYYLLS
soluble fraction (log2): 0.295

HMFVNADEIAKGLSPFNPSSVAIEAGRLMLKRIGELLSAGVSFSVETTLSTRSYINLIQQAQNQGYSVSL
soluble fraction (log2): ≥ 0.43

HMNHAPSLMRKIRRGLKEGRNPDDLLVNAKSISDYYYRSLSFYLLAPHFSSKSKQYKQVISLANS
soluble fraction (log2): -0.151

HMEVNMEEKMEFVHSYIKTHKTFLFRQLLSESKSRTQVIVTFLVILELIKGGKISVTQENRTDDILINSL
soluble fraction (log2): -0.521

HMINKDNLIEEILKFINTKIADISSNNPLFDIVAKPYISKVVTNNVSKLDKALSLIADDKGMVDADGLLT
soluble fraction (log2): -0.295

HMQPLGHDLTERELDVLALMVTGMNNSEIADKLVVSRSTIKYHVSNILSKLQATSRTEAVAYALQQNLVH
soluble fraction (log2): -1.41

HMQKYSTIIGVIELRQSGIGYRTTKKRYNIGNSTVTLIMNRFHELGLSLEELKAMPPKKVEEAFYPPE
soluble fraction (log2): -0.0306

HMNLLDYDFFEKMSSKEQEEIVEKVYIDFLNKSTGTNSPFYLKLFEKGKKSYIVNWLNENNF
soluble fraction (log2): -1.06

HMEYYIMPVANLHKVVVDGKDMSNLISNNAIAVKANVIDEGQIQIKPGEIIITTPAGVSPEEAVRSP
soluble fraction (log2): -0.135

HMALDLPVKRVKGKEYYYYKVKKGESLYGISKHLGLPLDSIVKSNPSVADGVRKGDMLLFPLEEYT
soluble fraction (log2): 0.115

HMLKHSKQRDAIEQFLATRYDHPTAETVYMNLREEYPKLSLATVYRNLSLLAELGNIQKIPTGNGPDRFDG
soluble fraction (log2): 0.22

HMKTATAKIKATPFGWLRVRETPSLNGAEIARVNSGESYKILERGEGWIKIKVSDTVEGWVSEAYVELS
soluble fraction (log2): -0.236

HMTIHVMEIKSLLPIKILDESQHLVQSFSSKNPTSYNYRLIFSDKSKLENIKKTINENKDVESIEIRYA
soluble fraction (log2): -0.436

HMEAEDLRDWVGARGIAYTALRPAGIAVVNGRRVDVVSEGAFVNRDDPVEVVRVEGRRIVVKP
soluble fraction (log2): -0.106

HMSIAEMSGARKSAILLLALDEDSAAEIFKYLSAGEVQEISMEMAKLNQVSHDDMKAVLEAFHKETEEFV
soluble fraction (log2): -1.02

HMYIVVPDLSKKDINEVANILAAQSLRFQVIDSANFRSDFPKNAVISQKPLAGSEVKVNKKIYLQLNPS
soluble fraction (log2): -0.608

HMQQVLGDVNEDDKVDFLDAIVVLRHDAEIIQLTDNQMKAAEVNKDGKVDFLDAIMILRYDAEIIGS
soluble fraction (log2): -0.196

HMHTSEDLEKLLTRYFQSHESINRQQFEQLSGFTRTTASRRLKALVEAGKLKNIGLHHFPVYKPTEGNF
soluble fraction (log2): 0.134

HMEWTDIPTHKVPNVVGKSVEEAKKKLSKFTIEYSGTGEKVVAQSPDAGEKLEEGGTVRLLL
soluble fraction (log2): 0.00183

HMDTRSSARKALDAVNLLLETYGAKAYQHSYEIAGRRQQFQTPGDFMAFRSRLMAEVATEENAARINA
soluble fraction (log2): ≥ 0.43

HMGDAIPVPDVSGFSEDQAMNNLRKVGLRPKATYVADDNTAKGYVTGTSPAKNIEVAPDSEVIVYVSSGP
soluble fraction (log2): 0.241

HMGPVPLASAADMEKFYSHLQQVLDEVDFKDRTGSGHLMARLRRLFQRTVLDQNEINILRGILMAVQGRR
soluble fraction (log2): -0.959

HMNNPLLDKVYQLMKQNNITEEEIVRAVAMKGYFPDDMKLGDYPDDFIDGVLIGAWDQIKQFIINNISPFK
soluble fraction (log2): -0.359

HMKAETILAIPENQPERLFPNNEDEARKIYRDLAREWHTDRNKSPKAQDVFSHLSKLYDIVIDRIKNKTWT
soluble fraction (log2): -0.0463
